Data as given in patent US20020119148A1.

What was measured:
[1] = target: HRG binding sites on human mammary carcinoma cell lines MDA-MB-453, T47D and BT474; assay: self-competition, 100 nM unlabeled HRG against 125I-HRG on T47D cells
[2] = target: HRG binding sites on human mammary carcinoma cell lines MDA-MB-453, T47D and BT474; assay: self-competition, 100 nM unlabeled HRG against 125I-HRG on BT474 cells
[3] = target: HRG binding sites on human mammary carcinoma cell lines MDA-MB-453, T47D and BT474; assay: self-competition, 100 nM unlabeled HRG against 125I-HRG on MDA-MB-453 cells
[4] = target: HER-2 on human mammary carcinoma cell lines MDA-MB-453, T47D and BT474 (human) (UniProt P04626); assay: 125I-HRG binding to T47D cells, 100 nM Mab

## HRGβ1(177-244), EGF-like domain of heregulin β1 (from UniProt Q02297 177-244) (ligand)
[1]
  percent of 125I-HRG binding blocked: 98%
[2]
  percent of 125I-HRG binding blocked: 96%
[3]
  percent of 125I-HRG binding blocked: 99%

## anti-HER-2 control Mab 4D5 (antibody)
[4]
  percent of 125I-HRG binding blocked: 48%
